Series [1] in a line: Terpene synthase assay and GC-MS / chiral GC product identification of recombinant enzymes expressed from pSBET in E. coli BL21(DE3) (Example 11). It is filed as biochemical. To be noted: extracts of induced cells. The protocol:
For functional expression, bacterial strains E. coli BL21(DE3)/pSAG2(M), E. coli BL21(DE3)/pSAG2(R), E. coli BL21(DE3)/pSAG3(R), E. coli BL21(DE3)/pSAG6(M), E. coli BL21(DE3/pSAG6(R), E. coli BL21(DE3)/pSAG8(M), E. coli BL21(DE3)/pSAG9(M), E. coli BL21(DE3)/pSAG11(M) and E. coli BL21(DE3)/SAG11(R) were grown to A600=0.5 at 37° C. in 5 ml of Luria-Bertani medium (Sambrook, J., Fritsch, E. F., and Maniatis, T. (1989) Molecular Cloning: A Laboratory Manual, 2nd Ed., pp. 7.20-7.43, Cold Spring Harbor, N.Y.) supplemented with 30 μg kanamycin/ml. Cultures were then induced by addition of 1 mM isopropyl-1-thio-β-D-galactopyranoside and grown for another 12 h at 20° C. Cells were harvested by centrifugation and disrupted by sonication followed by centrifugation, and the resulting soluble enzyme preparations were assayed for monoterpene, sesquiterpene and diterpene synthase activity using the appropriate radiolabeled substrate as described previously (Bohlmann, J., Steele, C. L., and Croteau, R. (1997) J. Biol. Chem. 272, 21784-21792). This assay involves the isolation and separation of terpene olefins and oxygenated terpenes by column chromatography on silica, followed by scintillation counting to determine conversion rate. GC-MS analysis is employed for product identification, by comparison of retention times and mass spectra to those of authentic standards (Bohlmann, J., Steele, C. L., and Croteau, R. (1997) J. Biol Chem. 272, 21784-21792); assignment of absolute configuration is based upon chiral column capillary GC and matching of retention time to that of the corresponding enantiomer (Lewinsohn, E., Savage, T. J., Gijzen, M., and Croteau, R. (1993) Phytochem. Anal. 4, 220-225). To insure production of sufficient material for identification, the standard assay (Bohlmann, J., Steele, C. L., and Croteau, R. (1997) J. Biol. Chem. 272, 21784-21792) was scaled up by a factor of 20.
Initially, the four pSBET plasmids pSAG6(M), pSAG8(M), pSAG9(M) and pSAG11(M), containing the full-length cDNA inserts of ag6 (SEQ ID NO:64), ag8 (SEQ ID NO:66), ag9 (SEQ ID NO:77) and ag11 (SEQ ID NO:68), respectively, were expressed in E. coli BL21(DE3). Extracts of the induced, transformed bacterial cells were assayed for monoterpene, sesquiterpene and diterpene synthase activity using the corresponding labeled C10, C15 and C20 prenyl diphosphate substrates (Bohlmann, J., Steele, C. L., and Croteau, R. (1997) J. Biol. Chem. 272, 21784-21792). […] Since it is known that the relatively large amino-terminal transit peptide of plant terpene synthases can impair expression of the functional preprotein in E. coli and promote the formation of intractable inclusion bodies (Williams, D. C., McGarvey, D. J., Katahira, E. J., and Croteau, R. (1998) Biochemisiry 37, 12213-12220), the“pseudomature” forms of ag6 (SEQ ID NO:64) and ag11 (SEQ ID NO:68) were prepared by truncation of the cDNAs to insert a starting methionine immediately upstream of their tandem arginine elements (R59R 60 for ag6 (SEQ ID NO:64), R^71R^72 for ag11 (SEQ ID NO:68)) for expression in E. coli BL21(DE3)/pSAG6(R) and E. coli BL21(DE3)/pSAG11(R). Similar truncations of previously characterized ag2.2 (SEQ ID NO:1) (myrcene synthase, R^64R^65) and ag3.18 (SEQ ID NO:3) ((−)-pinene synthase, (SEQ ID NO:5) R^64R^65) (Bohlmann, J., Steele, C. L., and Croteau, R. (1997) J. Biol. Chem. 272, 21784-21792) were prepared for expression from pSBET as controls for the possible alteration of product yield and distribution resulting from truncation.
Monoterpenes generated at preparative scale from geranyl diphosphate by the recombinant enzymes encoded by ag6 (SEQ ID NO:64), ag8 (SEQ ID NO:66), ag9 (SEQ ID NO:77) and ag11 (SEQ ID NO:68) were analyzed by GC-MS and chiral phase (β-cyclodextrin) capillary GC, and identified by comparison of retention times and mass spectra to authentic standards (FIGS. 6-9). […] The enzyme encoded by ag6 (SEQ ID NO:65) is therefore designated as (−)-1S,4R-camphene synthase. […]

For series [2] the following is noted: Bohlmann et al. 1997; cited from earlier work.

B1: AG3.18: recombinant (−)-pinene synthase from Grand fir encoded by cDNA clone AG3.18 (SEQ ID NO:3; protein SEQ ID NO:4) (protein, listed as Abies grandis)
chain: MALVSTAPLASKSCLHKSLISSTHELKALSRTIPALGMSRRGKSITPSISMSSTTVVTDDGVRRRMGDFHSNLWDDDVIQSLPTAYEEKSYLERAEKLIGEVKNMFNSMSLEDGELMSPLNDLIQRLWIVDSLERLGIHRHFKDEIKSALDYVYSYWGENGIGCGRESVVTDLNSTALGLRTLRLHGYPVSSDVFKAFKGQNGQFSCSENIQTDEEIRGVLNLFRASLIAFPGEKIMDEAEIFSTKYLKEALQKIPVSSLSREIGDVLEYGWHTYLPRLEARNYIQVFGQDTENTKSYVKSKKLLELAKLEFNIFQSLQKRELESLVRWWKESGFPEMTFCRHRHVEYYTLASCIAFEPQHSGFRLGFAKTCHLITVLDDMYDTFGTVDELELFTATMKRWDPSSIDCLPEYMKGVYIAVYDTVNEMAREAEEAQGRDTLTYAREAWEAYIDSYMQEARWIATGYLPSFDEYYENGKVSCGHRISALQPILTMDIPFPDHILKEVDFPSKLNDLACAILRLRGDTRCYKADRARGEEASSISCYMKDNPGVSEEDALDHINAMISDVIKGLNWELLKPDINVPISAKKHAFDIARAFHYGYKYRDGYSVANVETKSLVTRTLLESVPL
On to B1, for which, in series [1], the “terpene synthase activity on expression from pSBET in E. coli BL21(DE3)” value is recorded as “high level expression of activity”. For the same molecule, in series [2], the “(−)-enantiomer share of the α-pinene formed” value is reported as “more than 99%”.

The values above are taken from patent publication US6429014B1, “Monoterpene synthases from grand fir (Abies grandis)” (Washington State University Research Foundation, priority 1997, dated 2002).
